Data on two molecules can be found in PMC8643669 (Nucleic Acids Research, 2021).

For experiment [1], the target named is T1, CBP80, subunit of the purified recombinant CBC (human, UniProt Q09161 1-790).
T1 sequence: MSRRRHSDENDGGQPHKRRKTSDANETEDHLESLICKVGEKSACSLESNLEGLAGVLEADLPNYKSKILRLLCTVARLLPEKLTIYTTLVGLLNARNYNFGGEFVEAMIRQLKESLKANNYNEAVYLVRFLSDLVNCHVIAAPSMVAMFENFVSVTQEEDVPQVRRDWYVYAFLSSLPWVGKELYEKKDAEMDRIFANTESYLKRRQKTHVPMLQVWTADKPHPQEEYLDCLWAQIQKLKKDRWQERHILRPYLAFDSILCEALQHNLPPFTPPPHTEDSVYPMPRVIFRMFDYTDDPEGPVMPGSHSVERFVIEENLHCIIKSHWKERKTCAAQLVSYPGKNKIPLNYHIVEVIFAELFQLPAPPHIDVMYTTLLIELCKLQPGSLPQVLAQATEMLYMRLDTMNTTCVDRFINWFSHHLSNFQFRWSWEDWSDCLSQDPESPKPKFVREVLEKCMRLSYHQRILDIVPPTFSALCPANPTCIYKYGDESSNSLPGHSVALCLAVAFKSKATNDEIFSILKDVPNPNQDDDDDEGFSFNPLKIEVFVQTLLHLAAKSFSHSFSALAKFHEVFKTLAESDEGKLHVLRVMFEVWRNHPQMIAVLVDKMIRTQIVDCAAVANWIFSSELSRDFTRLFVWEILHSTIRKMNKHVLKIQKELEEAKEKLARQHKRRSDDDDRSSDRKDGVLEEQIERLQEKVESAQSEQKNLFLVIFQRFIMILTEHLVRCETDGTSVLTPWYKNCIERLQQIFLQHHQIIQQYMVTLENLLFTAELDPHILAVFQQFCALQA
Kind of experiment: far-Western, overlay or dot blot.

Experiment [2] addresses T2, purified recombinant nuclear cap-binding complex (CBC; heterodimer of CBP80 and CBP20) (human, UniProt Q09161;P52298).
T2 sequence 1: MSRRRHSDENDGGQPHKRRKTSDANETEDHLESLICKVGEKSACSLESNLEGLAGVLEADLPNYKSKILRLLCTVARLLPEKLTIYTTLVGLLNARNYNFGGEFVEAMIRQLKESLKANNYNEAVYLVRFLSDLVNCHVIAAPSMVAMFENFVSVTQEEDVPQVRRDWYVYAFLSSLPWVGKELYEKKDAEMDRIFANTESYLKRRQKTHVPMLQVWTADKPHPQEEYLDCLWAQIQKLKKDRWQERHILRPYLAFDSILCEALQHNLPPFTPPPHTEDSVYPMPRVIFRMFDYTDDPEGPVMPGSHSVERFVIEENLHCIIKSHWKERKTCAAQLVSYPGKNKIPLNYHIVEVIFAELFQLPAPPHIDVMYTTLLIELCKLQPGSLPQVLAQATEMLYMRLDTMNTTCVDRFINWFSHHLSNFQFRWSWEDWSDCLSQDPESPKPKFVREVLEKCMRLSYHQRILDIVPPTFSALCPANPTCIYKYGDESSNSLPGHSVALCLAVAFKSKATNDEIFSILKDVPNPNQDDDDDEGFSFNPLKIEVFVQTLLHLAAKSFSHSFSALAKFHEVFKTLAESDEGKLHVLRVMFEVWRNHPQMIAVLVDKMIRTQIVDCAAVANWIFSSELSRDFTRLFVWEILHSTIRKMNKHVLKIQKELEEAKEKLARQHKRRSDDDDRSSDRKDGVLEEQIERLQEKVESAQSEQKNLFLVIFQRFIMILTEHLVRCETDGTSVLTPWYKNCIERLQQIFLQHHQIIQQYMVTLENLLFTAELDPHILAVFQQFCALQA
T2 sequence 2: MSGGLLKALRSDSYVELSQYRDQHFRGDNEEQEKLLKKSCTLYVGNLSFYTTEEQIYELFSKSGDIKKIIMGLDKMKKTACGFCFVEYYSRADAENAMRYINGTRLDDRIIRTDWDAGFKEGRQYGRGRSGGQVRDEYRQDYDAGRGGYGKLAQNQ
As to the kind of experiment: pull-down.

B1: FLAG-SRP54 full-length (p3×FLAG-SRP54-FL) (natural protein)
chain: MVLADLGRKITSALRSLSNATIINEEVLNAMLKEVCTALLEADVNIKLVKQLRENVKSAIDLEEMASGLNKRKMIQHAVFKELVKLVDPGVKAWTPTKGKQNVIMFVGLQGSGKTTTCSKLAYYYQRKGWKTCLICADTFRAGAFDQLKQNATKARIPFYGSYTEMDPVIIASEGVEKFKNENFEIIIVDTSGRHKQEDSLFEEMLQVANAIQPDNIVYVMDASIGQACEAQAKAFKDKVDVASVIVTKLDGHAKGGGALSAVAATKSPIIFIGTGEHIDDFEPFKTQPFISKLLGMGDIEGLIDKVNELKLDDNEALIEKLKHGQFTLRDMYEQFQNIMKMGPFSQILGMIPGFGTDFMSKGNEQESMARLKKLMTIMDSMNDQELDSTDGAKVFSKQPGRIQRVARGSGVSTRDVQELLTQYTKFAQMVKKMGGIKGLFKGGDMSKNVSQSQMAKLNQQMAKMMDPRVLHHMGGMAGLQSMMRQFQQGAAGNMKGMMGFNNM
Turning to B1, the binding result in experiment [1] was “binds”.

B2: purified recombinant FLAG-SRP54-NG (residues 1-293) (domain or fragment)
chain: MVLADLGRKITSALRSLSNATIINEEVLNAMLKEVCTALLEADVNIKLVKQLRENVKSAIDLEEMASGLNKRKMIQHAVFKELVKLVDPGVKAWTPTKGKQNVIMFVGLQGSGKTTTCSKLAYYYQRKGWKTCLICADTFRAGAFDQLKQNATKARIPFYGSYTEMDPVIIASEGVEKFKNENFEIIIVDTSGRHKQEDSLFEEMLQVANAIQPDNIVYVMDASIGQACEAQAKAFKDKVDVASVIVTKLDGHAKGGGALSAVAATKSPIIFIGTGEHIDDFEPFKTQPFISK
B2: the binding result in experiment [2] is reported as “binds”.
